The results in this text go back to patent US6858210B1, “Therapeutic and diagnostic domain 1 β2GPI polypeptides and methods of using same” (La Jolla Pharmaceutical Co., priority 1998, dated 2005).

Experiment [1] concerns human β2GPI-dependent antiphospholipid antibody. Description: Micropanning of mutant domain 1 phage, patient antibodies. It counts as binding. As to conditions: Table 7B.
The next experiment deals with rabbit anti-human β2GPI. Briefly: Micropanning of mutant domain 1 phage, rabbit antibody. Set-up: key: 0 (<10 colonies) to 4+ (confluent) semiquantitative colony score. It counts as binding. Conditions: Table 7B. How it is done:
Error prone PCR was carried out as follows. Domain 1 of human β2GPI was amplified by PCR under conditions that enhance the error rate of Taq polymerase. The primers were such that amino acids 1-64 were amplified. A Sfc 1 restriction site was incorporated as part of amino acid 1. At the 3′ end a Sal 1 restriction site was incorporated after amino acid 64. The PCR reaction was done as described by Leung et al. (1989) Technique 1:11, using 0.25 mM MnCl2. The PCR product was digested with Sfc 1 and Sal 1 and cloned into fd-tet-DOG2 that had been digested with Apal 1 and Sal 1. This positions domain 1 at the N-terminus of pill immediately after the pill signal sequence. The ligation reaction was electroporated in E. coli K91. Phage were harvested and titered by standard methods. Resulting phage clones were assayed using a micropanning technique.
Immulon type 2 plates were coated with protein G. Protein G was prepared at 5 μg/mL in 0.1 M NaHCO3 and 100 μL per well was added to the wells of microtitration plates and incubated overnight at 4° C. After discarding excess protein G solution from plates, each well was blocked with 200 μL 2YT for 1 hour at RT with agitation on an oscillating platform. Tris-buffered saline, pH 7.4/0.5% Tween 20 (TBS/Tween), was used with an automatic plate washer to wash the wells 4 times with 200 μL. One hundred μL human β2GPI-dependent antiphospholipid 6626, 6501, 6701, rabbit β2GPI-dependent antiphospholipid, or control normal IgG, diluted to 2.5 μg/mL with 2YT, was added to washed wells. The plate was incubated for 1 hour at room temperature on a rotating platform.
Phage to be tested by micropanning were obtained from the agar plates generated by biopanning. Each clone to be tested was transferred using sterile toothpicks to a separate well of a round-bottom 96-well microtitration plate (Corning, Corning, N.Y.) containing 200 μL 2YT/Tet per well and cultured overnight at 30° C. Following overnight incubation, phage cultures were centrifuged using a microtitration plate holder at 1300×g for 10 minutes at room temperature. Supernatants constituted the source of “neat” phage. The neat phage were diluted 1: 100-1:1000 and 100 μL was added to the plate containing protein G-bound β2GPI-dependent antiphospholipid antibody-6501 and normal IgG prepared as described above. The incubation of dilute phage with aPL antibody or control IgG was carried out for 2 hours at room temperature on a flat rotator. After 9 washes with TBS/Tween in an automated plate washer, the IgG-bound phage was eluted with 20 μL of 0.2 N HCl-glycine/0.1% BSA, pH 2.2. The elution incubation continued for 10 minutes at RT, during which time a new Corning microtitration plate was prepared containing 20 μL of freshly starved E. coli per well and kept chilled. One hundred forty μL of 29 mM Tris was added to the plate containing the phage eluates in order to neutralize the pH, following which 20 μL of phage suspension was transferred from each well to the corresponding well in the plate containing starved E. coli. After a 10 minute incubation at 37° C., 200 μL 2YT was added and incubation carried out an additional 30 minutes at 37° C. Using multichannel pipettors, 8 μL from each well was spotted on a large 2YT/Tet agar plate while retaining the original 8×12 well pattern and orientation from the last microtitration plate. After allowing the spots to dry for 30 minutes, the plate was incubated overnight at 30° C. The following day, colonies were semiquantitatively scored from 0 to 4+, with 0 symbolizing <10 colonies; 1+=10-30; 2+=30 colonies to 70% confluent; 3+=70%-90% confluent; 4+=confluent.
For Table 7A, the rabbit anti-human β2GPI was performed on two separate occasions. Mutations are listed with the original amino acid, the position number, and the identity of the amino acid at that position in the mutant. […] Non-mutated domain 1 have a score of 3+, while domain 5 phage gave a score of −. Silent mutations are not shown. […]

B1: SE3: phage clone, domain 1 mutant T20I (protein)
chain: GRTCPKPDDLPFSTVVPLKIFYEPGEEITYSCKPGYVSRGGMRKFICPLTGLWPINTLKCTPRV
For the molecule B1, the Micropan score in experiment [1] (antibody 6226) turned out to be 3; in experiment [1] (antibody 6501), 3; in experiment [1] (antibody 6632) it was 3; in experiment [1] (antibody 6644), 3; in experiment [1] (antibody 6701) it was 3; in experiment [1] (antibody 7008), 4. For the same molecule, the Micropan score with rabbit anti-human β2GPI (1st column), in the experiment with rabbit anti-human β2GPI (2nd column), in the experiment on rabbit anti-human β2GPI (3rd column) and in the experiment with rabbit anti-human β2GPI (4th column) was 4 in each case.

B2: 3F6: phage clone, domain 1 mutant K44E (protein)
chain: GRTCPKPDDLPFSTVVPLKTFYEPGEEITYSCKPGYVSRGGMREFICPLTGLWPINTLKCTPRV
Take B2: the Micropan score in experiment [1] (antibody 6226) was 0 (0 symbolizing <10 colonies); in experiment [1] (antibody 6501), 0 (0 symbolizing <10 colonies); in experiment [1] (antibody 6632), 0 (0 symbolizing <10 colonies); in experiment [1] (antibody 6644), 1; in experiment [1] (antibody 6701) it was 0 (0 symbolizing <10 colonies); in experiment [1] (antibody 7008), 2. The molecule further registered a Micropan score in the experiment on rabbit anti-human β2GPI (5th column) of 4.

B3: 3B4: phage clone, domain 1 mutant S38T (protein)
chain: GRTCPKPDDLPFSTVVPLKTFYEPGEEITYSCKPGYVTRGGMRKFICPLTGLWPINTLKCTPRV
Turning to B3, the Micropan score in experiment [1] (antibody 6226) stood at 2; in experiment [1] (antibody 6501), 3; in experiment [1] (antibody 6632), 2; in experiment [1] (antibody 6644), 3; in experiment [1] (antibody 6701), 2; in experiment [1] (antibody 7008), 2. Also, in the experiment on rabbit anti-human β2GPI (5th column), the Micropan score is 4.

B4: SH1: phage clone, domain 1 mutant K33E (protein)
chain: GRTCPKPDDLPFSTVVPLKTFYEPGEEITYSCEPGYVSRGGMRKFICPLTGLWPINTLKCTPRV
On to B4, for which the Micropan score in experiment [1] (antibody 6226), in experiment [1] (antibody 6501), in experiment [1] (antibody 6632), in experiment [1] (antibody 6644), in experiment [1] (antibody 6701) and in experiment [1] (antibody 7008) was 4 throughout. Besides, the Micropan score in the experiment with rabbit anti-human β2GPI (1st column), in the experiment on rabbit anti-human β2GPI (2nd column), in the experiment on rabbit anti-human β2GPI (3rd column) and in the experiment with rabbit anti-human β2GPI (4th column) was 4 in each case.

B5: 4B12: phage clone, domain 1 mutant T50P (protein)
chain: GRTCPKPDDLPFSTVVPLKTFYEPGEEITYSCKPGYVSRGGMRKFICPLPGLWPINTLKCTPRV
Turning to B5, the Micropan score in experiment [1] (antibody 6226), in experiment [1] (antibody 6501), in experiment [1] (antibody 6632), in experiment [1] (antibody 6644), in experiment [1] (antibody 6701) and in experiment [1] (antibody 7008) was 1 in each case. For the same molecule, the Micropan score in the experiment on rabbit anti-human β2GPI (5th column) is 4.

B6: SC10: phage clone, domain 1 mutant N56D (protein)
chain: GRTCPKPDDLPFSTVVPLKTFYEPGEEITYSCKPGYVSRGGMRKFICPLTGLWPIDTLKCTPRV
Turning to B6, the Micropan score in experiment [1] (antibody 6226) was determined as 3; in experiment [1] (antibody 6501), 3; in experiment [1] (antibody 6632) it was 3; in experiment [1] (antibody 6644) it was 3; in experiment [1] (antibody 6701), 3; in experiment [1] (antibody 7008) it was 4. Further, the Micropan score in the experiment on rabbit anti-human β2GPI (1st column), in the experiment on rabbit anti-human β2GPI (2nd column), in the experiment on rabbit anti-human β2GPI (3rd column) and in the experiment on rabbit anti-human β2GPI (4th column) was 4 each time.

B7: 4G1: phage clone, domain 1 mutant S31P (protein)
chain: GRTCPKPDDLPFSTVVPLKTFYEPGEEITYPCKPGYVSRGGMRKFICPLTGLWPINTLKCTPRV
As to B7, the Micropan score in experiment [1] (antibody 6226), in experiment [1] (antibody 6501), in experiment [1] (antibody 6632), in experiment [1] (antibody 6644), in experiment [1] (antibody 6701) and in experiment [1] (antibody 7008) was 2 throughout. In the experiment on rabbit anti-human β2GPI (5th column), this molecule yielded a Micropan score of 4.

B8: SC3: phage clone, domain 1 mutant F45S (protein)
chain: GRTCPKPDDLPFSTVVPLKTFYEPGEEITYSCKPGYVSRGGMRKSICPLTGLWPINTLKCTPRV
For the molecule B8, the Micropan score in experiment [1] (antibody 6226) was 3; in experiment [1] (antibody 6501) it was 1; in experiment [1] (antibody 6632) it was 4; in experiment [1] (antibody 6644), 4; in experiment [1] (antibody 6701), 0 (0 symbolizing <10 colonies); in experiment [1] (antibody 7008), 4. In addition, the Micropan score in the experiment on rabbit anti-human β2GPI (1st column), in the experiment on rabbit anti-human β2GPI (2nd column), in the experiment with rabbit anti-human β2GPI (3rd column) and in the experiment on rabbit anti-human β2GPI (4th column) was 4 each time.

B9: 3F12: phage clone, domain 1 multiple mutant L10I, P17Q, Y22C (protein)
chain: GRTCPKPDDIPFSTVVQLKTFCEPGEEITYSCKPGYVSRGGMRKFICPLTGLWPINTLKCTPRV
For the molecule B9, the Micropan score in experiment [1] (antibody 6226), in experiment [1] (antibody 6501), in experiment [1] (antibody 6632), in experiment [1] (antibody 6644), in experiment [1] (antibody 6701) and in experiment [1] (antibody 7008) was 1 each time. The same molecule had a Micropan score in the experiment with rabbit anti-human β2GPI (5th column) of 4.

B10: 3C3: phage clone, domain 1 mutant L52P (protein)
chain: GRTCPKPDDLPFSTVVPLKTFYEPGEEITYSCKPGYVSRGGMRKFICPLTGPWPINTLKCTPRV
Consider B10, for which the Micropan score in experiment [1] (antibody 6226) is on record as 1; in experiment [1] (antibody 6501), 1; in experiment [1] (antibody 6632) it was 0 (0 symbolizing <10 colonies); in experiment [1] (antibody 6644), 1; in experiment [1] (antibody 6701) it was 1; in experiment [1] (antibody 7008) it was 1. The molecule also displayed a Micropan score in the experiment with rabbit anti-human β2GPI (5th column) of 4.

B11: 3G1: phage clone, domain 1 multiple mutant R2W, S38T (protein)
chain: GWTCPKPDDLPFSTVVPLKTFYEPGEEITYSCKPGYVTRGGMRKFICPLTGLWPINTLKCTPRV
Turning to B11, the Micropan score in experiment [1] (antibody 6226), in experiment [1] (antibody 6501), in experiment [1] (antibody 6632), in experiment [1] (antibody 6644), in experiment [1] (antibody 6701) and in experiment [1] (antibody 7008) was 1 in each case. The Micropan score in the experiment with rabbit anti-human β2GPI (5th column) stood at 4.

B12: 3A4: phage clone, domain 1 multiple mutant D8A, S13T (protein)
chain: GRTCPKPADLPFTTVVPLKTFYEPGEEITYSCKPGYVSRGGMRKFICPLTGLWPINTLKCTPRV
Take B12: the Micropan score in experiment [1] (antibody 6226) was found to be 3; in experiment [1] (antibody 6501), 3; in experiment [1] (antibody 6632), 3; in experiment [1] (antibody 6644), 4; in experiment [1] (antibody 6701) it was 3; in experiment [1] (antibody 7008), 3. For the same molecule, the Micropan score in the experiment with rabbit anti-human β2GPI (5th column) amounted to 4.
